Assay results: the supplement of paper PMC5998384

Experiments:
HeLa Kyoto [1] = assay: melting temperature (median over replicates), in situ; higher = more thermally stable
HeLa Kyoto [2] = assay: solubility change mitosis vs G1/S (difference of NP-40 vs SDS log2 ratios) (log2 ratio difference); higher = more soluble in mitosis
HeLa Kyoto [3] = assay: solubility in G1/S (NP-40 vs SDS abundance) (log2 ratio); higher = more soluble; conditions: cell cycle stage: G1/S
HeLa Kyoto [4] = assay: thermal stability score vs G1/S (z-score of summed log2 fold changes over temperatures); higher = more thermally stable than in G1/S
[5] = cell cycle stage: early G1 (4.5 h after nocodazole release)
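Throughout, for melting temperature (median over replicates), in situ: HeLa Kyoto cells synchronized by double thymidine or nocodazole block, proteins quantified by TMT10plex mass spectrometry, three independent biological replicates.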
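Throughout, for solubility change mitosis vs G1/S (difference of NP-40 vs SDS log2 ratios): synchronized HeLa Kyoto cells (double thymidine block for G1/S, nocodazole release for mitosis), protein amounts in NP-40 versus SDS lysates quantified by mass spectrometry, three biological replicates.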
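Throughout, for solubility in G1/S (NP-40 vs SDS abundance): HeLa Kyoto cells arrested at G1/S by double thymidine block, proteins quantified by TMT10plex mass spectrometry in mild NP-40 versus SDS extracts, three biological replicates.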
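Throughout, for thermal stability score vs G1/S (z-score of summed log2 fold changes over temperatures): synchronized HeLa Kyoto cells, proteins quantified by TMT10plex mass spectrometry, three biological replicates, mitosis taken 0.5 h after nocodazole release, G1/S directly after double thymidine block.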

Row | Sequence | melting temperature (HeLa Kyoto [1]; cell cycle stage: G1/S) [°C] | melting temperature (HeLa Kyoto [1]; cell cycle stage: mitosis) [°C] | solubility change mitosis (log2) (HeLa Kyoto [2]) | solubility in G1/S (log2) (HeLa Kyoto [3]) | thermal stability score (HeLa Kyoto [4]; [5]) | thermal stability score (HeLa Kyoto [4]; cell cycle stage: mitosis)
1 | MSEAPRFFVGPEDTEINPGNYRHFFHHADEDDEEEDDSPPERQIVVGICSMAKKSKSKPMKEILERISLFKYITVVVFEEEVILNEPVENWPLCDCLISFHSKGFPLDKAVAYAKLRNPFVINDLNMQYLIQDRREVYSILQAEGILLPRYAILNRDPNNPKECNLIEGEDHVEVNGEVFQKPFVEKPVSAEDHNVYIYYPTSAGGGSQRLFRKIGSRSSVYSPESNVRKTGSYIYEEFMPTDGTDVKVYTVGPDYAHAEARKSPALDGKVERDSEGKEVRYPVILNAREKLIAWKVCLAFKQTVCGFDLLRANGQSYVCDVNGFSFVKNSMKYYDDCAKILGNIVMRELAPQFHIPWSIPLEAEDIPIVPTTSGTMMELRCVIAVIRHGDRTPKQKMKMEVRHQKFFDLFEKCDGYKSGKLKLKKPKQLQEVLDIARQLLMELGQNNDSEIEENKPKLEQLKTVLEMYGHFSGINRKVQLTYLPHGCPKTSSEEEDSRREEPSLLLVLKWGGELTPAGRVQAEELGRAFRCMYPGGQGDYAGFPGCGLLRLHSTYRHDLKIYASDEGRVQMTAAAFAKGLLALEGELTPILVQMVKSANMNGLLDSDSDSLSSCQQRVKARLHEILQKDRDFTAEDYEKLTPSGSISLIKSMHLIKNPVKTCDKVYSLIQSLTSQIRHRMEDPKSSDIQLYHSETLELMLRRWSKLEKDFKTKNGRYDISKIPDIYDCIKYDVQHNGSLKLENTMELYRLSKALADIVIPQEYGITKAEKLEIAKGYCTPLVRKIRSDLQRTQDDDTVNKLHPVYSRGVLSPERHVRTRLYFTSESHVHSLLSILRYGALCNESKDEQWKRAMDYLNVVNELNYMTQIVIMLYEDPNKDLSSEERFHVELHFSPGAKGCEEDKNLPSGYGYRPASRENEGRRPFKIDNDDEPHTSKRDEVDRAVILFKPMVSEPIHIHRKSPLPRSRKTATNDEESPLSVSSPEGTGTWLHYTSGVGTGRRRRRSGEQITSSPVSPKSLAFTSSIFGSWQQVVSENANYLRTPRTLVEQKQNPTVGSHCAGLFSTSVLGGSSSAPNLQDYARTHRKKLTSSGCIDDATRGSAVKRFSISFARHPTNGFELYSMVPSICPLETLHNALSLKQVDEFLASIASPSSDVPRKTAEISSTALRSSPIMRKKVSLNTYTPAKILPTPPATLKSTKASSKPATSGPSSAVVPNTSSRKKNITSKTETHEHKKNTGKKK [PPIP5K2] | 52.5 | 52.6 | -0.068 | 0.0594 | 0.0139 | 0.108
2 | MSEASSEDLVPPLEAGAAPYREEEEAAKKKKEKKKKSKGLANVFCVFTKGKKKKGQPSSAEPEDAAGSRQGLDGPPPTVEELKAALERGQLEAARPLLALERELAAAAAAGGVSEEELVRRQSKVEALYELLRDQVLGVLRRPLEAPPERLRQALAVVAEQEREDRQAAAAGPGTSGLAATRPRRWLQLWRRGVAEAAEERMGQRPAAGAEVPESVFLHLGRTMKEDLEAVVERLKPLFPAEFGVVAAYAESYHQHFAAHLAAVAQFELCERDTYMLLLWVQNLYPNDIINSPKLVGELQGMGLGSLLPPRQIRLLEATFLSSEAANVRELMDRALELEARRWAEDVPPQRLDGHCHSELAIDIIQITSQAQAKAESITLDLGSQIKRVLLVELPAFLRSYQRAFNEFLERGKQLTNYRANVIANINNCLSFRMSMEQNWQVPQDTLSLLLGPLGELKSHGFDTLLQNLHEDLKPLFKRFTHTRWAAPVETLENIIATVDTRLPEFSELQGCFREELMEALHLHLVKEYIIQLSKGRLVLKTAEQQQQLAGYILANADTIQHFCTQHGSPATWLQPALPTLAEIIRLQDPSAIKIEVATYATCYPDFSKGHLSAILAIKGNLSNSEVKRIRSILDVSMGAQEPSRPLFSLIKVG [TNFAIP2] | 50.4 | 48.2 | -0.0517 | 0.296 | 0.545 | 1.06
3 | MSEEQFGGDGAAAAATAAVGGSAGEQEGAMVAATQGAAAAAGSGAGTGGGTASGGTEGGSAESEGAKIDASKNEEDEGHSNSSPRHSEAATAQREEWKMFIGGLSWDTTKKDLKDYFSKFGEVVDCTLKLDPITGRSRGFGFVLFKESESVDKVMDQKEHKLNGKVIDPKRAKAMKTKEPVKKIFVGGLSPDTPEEKIREYFGGFGEVESIELPMDNKTNKRRGFCFITFKEEEPVKKIMEKKYHNVGLSKCEIKVAMSKEQYQQQQQWGSRGGFAGRARGRGGGPSQNWNQGYSNYWNQGYGNYGYNSQGYGGYGGYDYTGYNNYYGYGDYSNQQSGYGKVSRRGGHQNSYKPY [HNRNPD] | 55.6 | 54.9 | 0.191 | 0.068 | -3.11 | -2.98
4 | MSEGVDLIDIYADEEFNQDPEFNNTDQIDLYDDVLTATSQPSDDRSSSTEPPPPVRQEPSPKPNNKTPAILYTYSGLRNRRAAVYVGSFSWWTTDQQLIQVIRSIGVYDVVELKFAENRANGQSKGYAEVVVASENSVHKLLELLPGKVLNGEKVDVRPATRQNLSQFEAQARKRECVRVPRGGIPPRAHSRDSSDSADGRATPSENLVPSSARVDKPPSVLPYFNRPPSALPLMGLPPPPIPPPPPLSSSFGVPPPPPGIHYQHLMPPPPRLPPHLAVPPPGAIPPALHLNPAFFPPPNATVGPPPDTYMKASAPYNHHGSRDSGPPPSTVSEAEFEDIMKRNRAISSSAISKAVSGASAGDYSDAIETLLTAIAVIKQSRVANDERCRVLISSLKDCLHGIEAKSYSVGASGSSSRKRHRSRERSPSRSRESSRRHRDLLHNEDRHDDYFQERNREHERHRDRERDRHH [CPSF7] | 51.8 | 52.1 | 0.173 | -0.309 | -1.14 | -2.91
5 | MSEHVEPAAPGPGPNGGGGGPAPARGPRTPNLNPNPLINVRDRLFHALFFKMAVTYSRLFPPAFRRLFEFFVLLKALFVLFVLAYIHIVFSRSPINCLEHVRDKWPREGILRVEVRHNSSRAPVFLQFCDSGGRGSFPGLAVEPGSNLDMEDEEEEELTMEMFGNSSIKFELDIEPKVFKPPSSTEALNDSQEFPFPETPTKVWPQDEYIVEYSLEYGFLRLSQATRQRLSIPVMVVTLDPTRDQCFGDRFSRLLLDEFLGYDDILMSSVKGLAENEENKGFLRNVVSGEHYRFVSMWMARTSYLAAFAIMVIFTLSVSMLLRYSHHQIFVFIVDLLQMLEMNMAIAFPAAPLLTVILALVGMEAIMSEFFNDTTTAFYIILIVWLADQYDAICCHTSTSKRHWLRFFYLYHFAFYAYHYRFNGQYSSLALVTSWLFIQHSMIYFFHHYELPAILQQVRIQEMLLQAPPLGPGTPTALPDDMNNNSGAPATAPDSAGQPPALGPVSPGASGSPGPVAAAPSSLVAAAASVAAAAGGDLGWMAETAAIITDASFLSGLSASLLERRPASPLGPAGGLPHAPQDSVPPSDSAASDTTPLGAAVGGPSPASMAPTEAPSEVGS [TMEM259] | 54.7 | 54.2 | -0.025 | -0.252 | 0.29 | 0.308
6 | MSEKENNFPPLPKFIPVKPCFYQNFSDEIPVEHQVLVKRIYRLWMFYCATLGVNLIACLAWWIGGGSGTNFGLAFVWLLLFTPCGYVCWFRPVYKAFRADSSFNFMAFFFIFGAQFVLTVIQAIGFSGWGACGWLSAIGFFQYSPGAAVVMLLPAIMFSVSAAMMAIAIMKVHRIYRGAGGSFQKAQTEWNTGTWRNPPSREAQYNNFSGNSLPEYPTVPSYPGSGQWP [SCAMP4] | 57 | 60.3 | 0.144 | -0.117 | -1.67 | -2.1
